Target: T1, peptide fragment of the human prorenin receptor protein, 200-213th polypeptide (SEQ ID NO: 37) (human)
T1 construct: For immunisation, KLH was linked to its amino terminus; also called peptide fragment of the prorenin receptor
T1 peptide: HKHLAKDHSPDLYS
Assay: BLI (BLItz, Pall ForteBio), antibody in hybridoma culture liquid against the prorenin receptor peptide fragment

binding result: binds
B1: anti-prorenin receptor monoclonal antibody 8_6 (antibody, IgM, V domains shown)
VH: VQLVESGGGLVQPGRSLKLSCAASGFTFSNYYMAWVRHAPKKGLEWVATISTSGSRTYYPDSVKGRFTISRDNAKSSLYLQMNSLKSEDTATYYCARHEFGAFDYWGQGVTV
VL: DIVMTQSPSSLAVSAGETVTINCKSSQSLLYSGNQKNYLAWYQQKPGQSPKLLIYWASTRQSGVPDRFIGSGSGTDFTLTISSVQAEDLAIYYCQQYYDTPYTFGAGTK
notes: Rat hybridoma antibody, isotype IgM; Hybridoma culture liquid was tested in the BLI screen

Reference: patent WO2018084236A1 (dated 2018)
